According to article PMC10700544:

B1: wild type RNase J, BACTH fusions (pUT18 and pKNT25) [Helicobacter pylori] / wild type RNase J, BACTH fusions (pUT18 and pKNT25) [Helicobacter pylori] (parent)
chain 1: MTDNNQNNENHENSSENSKADEMRAGAFERFTNRKKRFRENAQKNAEYSNHEASSHHKKEHRPNKKPNNHHKQKHAKTRNYAQEELDSNKVEGVTEILHVNERGTLGFHKELKKGVEANNKIQVEHLNPHYKMNLNSKASVKITPLGGLGEIGGNMMVIETPKSAIVIDAGMSFPKEGLFGVDILIPDFSYLHQIKDKIAGIIITHAHEDHIGATPYLFKELQFPLYGTPLSLGLIGSKFDEHGLKKYRSYFKIVEKRCPISVGEFIIEWIHITHSIIDSSALAIQTKAGTIIHTGDFKIDHTPVDNLPTDLYRLAHYGEKGVMLLLSDSTNSHKSGTTPSESTIAPAFDTLFKEAQGRVIMSTFSSNIHRVYQAIQYGIKYNRKIAVIGRSMEKNLDIARELGYIHLPYQSFIEANEVAKYPDNEILIVTTGSQGETMSALYRMATDEHRHISIKPNDLVIISAKAIPGNEASVSAVLNFLIKKEAKVAYQEFDNIHVSGHAAQEEQKLMLRLIKPKFFLPVHGEYNHVARHKQTAISCGVPEKNIYLMEDGDQVEVGPAFIKKVGTIKSGKSYVDNQSNLSIDTSIVQQREEVASAGVFVATIFVNKNKQALLESSQFSSLGLVGFKDEKPLIKEIQGGLEVLLKSSNAEILNNPKKLEDHTRNFIRKALFKKFRKYPAIICHAHSF
chain 2: B1 chain 1

Variants of: B1
Test: BACTH (bacterial two hybrid), beta-galactosidase read-out
Conditions: with wild type RNase J, in E. coli, RNJ WT on pUT18, mutant on pKNT25, n ≥ 6, parent: 430, read off a plot

Question: With chain 1 E661A as the variant, how does the response read?
Answer: 180 Miller units

Question: How did the response turn out when chain 1 K609A was run?
Answer: 500 Miller units

Question: Which response does the source give for chain 1 E593A here?
Answer: 520 Miller units

Question: With chain 1 K632A as the variant, how does the response read?
Answer: 380 Miller units

Question: chain 1 K658A was tested. Which response did it give?
Answer: 220 Miller units

Question: Which response does the source give for chain 1 E616A here?
Answer: 220 Miller units

Question: Which response does the source give for chain 1 E652A here?
Answer: 210 Miller units

Question: Which response does the source give for chain 1 E594A here?
Answer: 440 Miller units

Question: For chain 1 K647A, which response is on record?
Answer: 130 Miller units
